{"source": "IntAct's records for PubMed 18854162", "parents": {"B1": {"name": "CCCH-type zinc finger protein oma-1 (Caenorhabditis elegans), G5EC86 (parent)", "chain": "MNVNGENNEKIDEHHLESSLAGVPTLPVSPLDHAKDLSQTNPNAQIGDLVTQTANLIAIKKQLLEDIAFNQHIQSMQVRAIQSFPQNNQVAPPFQQFDPRRRGLARMQKPESYKTVICQAWLESKTCSFADNCRFAHGEEELRPTFVEPLQNNKYKTKLCDKYTTTGLCPYGKRCLFIHPDHGPNAYIRADKLLEVSQRHALADIRDQMEQHIMTNGRIAAPPLSAIQHPLEMFARPSTPDEPAAKLPLGPTPVSTRGPRYELPTKELHDAEGAMTYPPSRWPLDPSMFALDAWNMAHRPASPLDSMVLGSAPNAGSFGMLGKQNTPGGVSGYSSAGSTPSQDLSSSSLNAASAAAAAAYFANSAVAQSLLMKSVATDPMMSCNGPFSPMPGFDQLAENMTKHLNLW", "partner": "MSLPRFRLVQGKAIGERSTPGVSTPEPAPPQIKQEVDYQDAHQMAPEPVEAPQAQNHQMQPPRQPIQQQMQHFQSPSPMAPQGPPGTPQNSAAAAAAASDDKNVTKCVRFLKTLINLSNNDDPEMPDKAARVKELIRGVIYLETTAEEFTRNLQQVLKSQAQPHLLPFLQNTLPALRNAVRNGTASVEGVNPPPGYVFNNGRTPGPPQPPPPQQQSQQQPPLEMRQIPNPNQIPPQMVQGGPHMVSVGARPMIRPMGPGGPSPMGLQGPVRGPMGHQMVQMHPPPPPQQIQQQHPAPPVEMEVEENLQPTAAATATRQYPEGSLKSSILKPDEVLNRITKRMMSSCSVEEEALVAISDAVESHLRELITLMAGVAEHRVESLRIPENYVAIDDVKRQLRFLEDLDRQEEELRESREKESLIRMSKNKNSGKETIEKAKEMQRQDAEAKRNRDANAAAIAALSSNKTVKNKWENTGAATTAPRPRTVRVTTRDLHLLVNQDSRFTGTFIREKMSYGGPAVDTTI"}}}
{"variants_of": "B1", "details": "with taf4_caeel taf-4, O61707"}
{"variant": "MNVNGENNEKIDEHHLESSLAGVPTLPVSPLDHAKDLSQTNPNAQIGDLVTQTANLIAIKKQLLEDIAFNQHIQSMQVRAIQSFPQNNQVAPPFQQFDPRRRGLARMQKPESYKTVICQAWLESKTCSFADNCRFAHGEEELRPTFVEPLQNNKYKTKLCDKYTTTGLCPYGKRCLFIHPDHGPNAYIRADKLLEVSQRHALADIRDQMEQHIMTNGRIAAPPLSAIQHPLEMFARPSAPDEPAAKLPLGPTPVSTRGPRYELPTKELHDAEGAMTYPPSRWPLDPSMFALDAWNMAHRPASPLDSMVLGSAPNAGSFGMLGKQNTPGGVSGYSSAGSTPSQDLSSSSLNAASAAAAAAYFANSAVAQSLLMKSVATDPMMSCNGPFSPMPGFDQLAENMTKHLNLW", "note": "[T239A]", "effect of a mutation on the interaction": "decreasing interaction"}
